Our source for the EC50 of blocking TRAIL-induced apoptosis of HepG2 cells and EC50 of blocking Trail (at EC90) killing of Jurkat cells, MTS/PMS A490-A630 values is patent US20190352354A1.

The experiment concerns the target commercial Trail (TNF-related apoptosis-inducing ligand, TRAIL) (UniProt P50591). Description: cell-based or functional assay.

Chain of commercial DR5-Fc fusion protein (R&D Systems) (O14763 52-182): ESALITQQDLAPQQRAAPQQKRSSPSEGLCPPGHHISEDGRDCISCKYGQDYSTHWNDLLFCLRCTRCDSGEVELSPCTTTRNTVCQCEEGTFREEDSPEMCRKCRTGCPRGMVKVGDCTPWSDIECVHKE
Chain of commercial Trail (TNF-related apoptosis-inducing ligand, TRAIL) (P50591 114-281 limits assumed): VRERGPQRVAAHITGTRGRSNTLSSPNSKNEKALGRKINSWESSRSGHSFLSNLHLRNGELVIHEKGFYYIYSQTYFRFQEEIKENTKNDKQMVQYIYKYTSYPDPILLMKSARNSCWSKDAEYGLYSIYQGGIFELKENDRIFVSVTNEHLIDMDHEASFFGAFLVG

With “commercial DR5-Fc fusion protein (R&D Systems) (from UniProt O14763 52-182)”, the EC50 of blocking TRAIL-induced apoptosis of HepG2 cells came to 0.0276 µg/mL and the EC50 of blocking Trail (at EC90) killing of Jurkat cells, MTS/PMS A490-A630 is 0.0718 µg/mL.
